Literature values, collected in article PMC11949069.

Target: IL-18BPa (Homo sapiens) (UniProt O95998)
Sequence (O95998 31-194): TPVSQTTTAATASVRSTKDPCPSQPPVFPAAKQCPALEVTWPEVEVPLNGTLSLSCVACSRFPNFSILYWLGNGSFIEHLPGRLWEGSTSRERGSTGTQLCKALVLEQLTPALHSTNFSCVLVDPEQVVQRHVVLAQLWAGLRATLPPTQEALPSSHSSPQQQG

Sequence of IL-18 (Q14116 37-193): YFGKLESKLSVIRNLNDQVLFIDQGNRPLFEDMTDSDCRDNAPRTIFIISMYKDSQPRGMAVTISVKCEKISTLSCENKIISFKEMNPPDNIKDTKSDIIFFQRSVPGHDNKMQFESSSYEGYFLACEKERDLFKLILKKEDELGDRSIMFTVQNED

With IL-18 (from UniProt Q14116) as the substance, how does the Kd read?
The Kd was 400 pM.
